Measured values from FireProtDB (doi:10.1093/jb/mvq079).

Conditions: Escherichia coli (strain K12), whole UniProt chain shown

B1: Divalent-cation tolerance protein CutA wild type, P69488 (protein)
chain: MLDEKSSNTASVVVLCTAPDEATAQDLAAKVLAEKLAACATLIPGATSLYYWEGKLEQEYEVQMILKTTVSHQQALLECLKSHHPYQTPELLVLPVTHGDTDYLSWLNASLR
denaturant midpoint (higher = more stable) (pH 8, 37 °C, GdnHCl, CD, Tris-HCl, reversible: yes): 2.72 M | Tm (pH 9, Thermal, DSC, glycine Buffer, transition: 2, reversible: no): 89.9 °C
